Measured values: PMC2195994 (The Journal of Cell Biology, 2001)

T1: GST–IRS-58 (1–432) (human, UniProt Q9UQB8 1-432)
T1 sequence (looked up): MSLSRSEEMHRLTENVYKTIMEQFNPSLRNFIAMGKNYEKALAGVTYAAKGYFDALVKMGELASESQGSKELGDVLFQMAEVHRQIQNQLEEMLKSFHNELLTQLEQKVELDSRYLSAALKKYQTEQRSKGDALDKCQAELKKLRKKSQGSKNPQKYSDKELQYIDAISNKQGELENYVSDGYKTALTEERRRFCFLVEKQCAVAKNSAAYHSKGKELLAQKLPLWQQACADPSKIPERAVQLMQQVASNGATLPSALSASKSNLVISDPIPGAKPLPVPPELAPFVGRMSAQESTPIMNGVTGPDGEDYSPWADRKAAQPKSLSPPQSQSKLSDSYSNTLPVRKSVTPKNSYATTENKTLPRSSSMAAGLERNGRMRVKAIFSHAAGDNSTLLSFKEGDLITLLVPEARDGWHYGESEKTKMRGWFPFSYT

T2: GST–IRS-58 (1–358) (human, UniProt Q9UQB8 1-358)
T2 sequence (looked up): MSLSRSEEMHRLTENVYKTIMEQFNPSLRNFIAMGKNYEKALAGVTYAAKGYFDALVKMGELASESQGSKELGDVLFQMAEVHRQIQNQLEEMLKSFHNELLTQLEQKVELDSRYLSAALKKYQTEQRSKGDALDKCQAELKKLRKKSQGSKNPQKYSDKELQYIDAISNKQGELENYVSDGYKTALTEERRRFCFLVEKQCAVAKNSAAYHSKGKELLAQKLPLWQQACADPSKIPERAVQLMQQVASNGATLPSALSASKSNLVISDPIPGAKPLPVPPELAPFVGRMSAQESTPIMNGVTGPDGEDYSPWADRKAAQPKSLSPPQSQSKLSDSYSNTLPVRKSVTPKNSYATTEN

B1: Cdc42HsQ61L (natural protein)
chain: not shown
B2: IRS-58–GST fusion protein (202–305 amino acid residues) (domain or fragment, human, UniProt Q9UQB8 202-305, looked up)
chain: CAVAKNSAAYHSKGKELLAQKLPLWQQACADPSKIPERAVQLMQQVASNGATLPSALSASKSNLVISDPIPGAKPLPVPPELAPFVGRMSAQESTPIMNGVTGP

Legend:
Assay in all cases: far-Western, overlay or dot blot
GST–IRS-58 (1–432) = biological target: T1, GST–IRS-58 (1–432)
GST–IRS-58 (1–358) = biological target: T2, GST–IRS-58 (1–358)
Cdc42HsQ61L = biological target: B1
Cdc42Hs L61C40 = Cdc42Hs L61C40 (human, UniProt P60953-1 1-191, L61 | C40)

binding result (GST–IRS-58 (1–432))	binding result (GST–IRS-58 (1–358))	binding result (Cdc42HsQ61L)	binding result (Cdc42Hs L61C40)	Binder
binds	binds			B1
		binds	binds	B2
